Patent publication US20250042992A1 (University of California, published 2025)

T1: DLK1 ECD-mFc long form (human DLK1-FL, isoform 1) (human, UniProt P80370 24-303)
T1 construct: also called long form of the human DLK1 protein (ELISA coat); not shown: mFc (monomeric immunoglobulin Fc domain)
T1 sequence: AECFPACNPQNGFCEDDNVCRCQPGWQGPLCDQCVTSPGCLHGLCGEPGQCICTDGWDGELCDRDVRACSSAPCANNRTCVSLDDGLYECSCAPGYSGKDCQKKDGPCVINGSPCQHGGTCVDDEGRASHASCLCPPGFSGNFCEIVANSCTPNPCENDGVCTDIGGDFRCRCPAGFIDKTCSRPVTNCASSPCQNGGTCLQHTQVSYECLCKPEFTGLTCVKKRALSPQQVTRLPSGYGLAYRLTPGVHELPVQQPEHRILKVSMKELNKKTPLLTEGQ

T2: human DLK1 long form (isoform 1, DLK1-FL) fused to mGFP, overexpressed on HEK293T cells (human, UniProt P80370 24-383)
T2 construct: also called HEK293T DLK1 mGFP G06 (long form); DLK-FL; not shown: mGFP fluorescent protein fused to DLK1
T2 sequence: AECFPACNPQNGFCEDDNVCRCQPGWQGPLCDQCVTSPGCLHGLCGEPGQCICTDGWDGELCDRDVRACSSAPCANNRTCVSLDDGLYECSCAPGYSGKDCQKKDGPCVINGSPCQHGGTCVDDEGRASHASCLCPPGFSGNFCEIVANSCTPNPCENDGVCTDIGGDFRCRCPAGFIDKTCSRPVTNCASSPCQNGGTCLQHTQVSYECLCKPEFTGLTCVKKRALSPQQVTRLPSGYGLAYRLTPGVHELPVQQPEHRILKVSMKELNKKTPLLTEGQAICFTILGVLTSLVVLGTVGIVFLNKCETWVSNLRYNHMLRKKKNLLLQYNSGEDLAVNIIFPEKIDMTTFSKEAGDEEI

T3: human DLK1 short form (isoform 2, DLK1-MB) fused to mGFP, expressed on HEK293T cells (human, UniProt P80370 24-383)
T3 sequence: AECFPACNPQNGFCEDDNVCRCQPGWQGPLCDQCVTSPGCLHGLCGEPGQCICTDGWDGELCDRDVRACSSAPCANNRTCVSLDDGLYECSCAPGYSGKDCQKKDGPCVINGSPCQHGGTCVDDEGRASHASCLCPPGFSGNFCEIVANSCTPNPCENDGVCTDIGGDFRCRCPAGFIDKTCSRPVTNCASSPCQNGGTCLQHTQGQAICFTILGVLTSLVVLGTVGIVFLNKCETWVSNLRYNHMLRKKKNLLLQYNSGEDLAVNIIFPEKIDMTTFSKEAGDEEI

T4: rat DLK1 fused to mGFP, overexpressed on HEK293T cells (rat, UniProt O70534 24-383)
T4 construct: whole, on cells; not shown: mGFP fluorescent protein fused to DLK1
T4 sequence (looked up): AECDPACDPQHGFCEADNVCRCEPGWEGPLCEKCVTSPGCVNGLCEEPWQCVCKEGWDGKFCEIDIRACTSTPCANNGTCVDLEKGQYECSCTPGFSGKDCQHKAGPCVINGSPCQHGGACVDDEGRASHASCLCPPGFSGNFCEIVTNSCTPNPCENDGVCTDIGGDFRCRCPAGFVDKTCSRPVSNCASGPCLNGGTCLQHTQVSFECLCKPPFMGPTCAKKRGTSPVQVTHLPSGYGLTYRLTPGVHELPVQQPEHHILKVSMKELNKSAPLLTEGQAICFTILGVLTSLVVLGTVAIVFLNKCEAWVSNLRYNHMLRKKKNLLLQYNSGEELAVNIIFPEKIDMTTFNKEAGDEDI

T5: mouse DLK1 fused to mGFP, overexpressed on HEK293T cells (mouse, UniProt Q09163 24-385)
T5 construct: not shown: mGFP fluorescent protein fused to DLK1
T5 sequence: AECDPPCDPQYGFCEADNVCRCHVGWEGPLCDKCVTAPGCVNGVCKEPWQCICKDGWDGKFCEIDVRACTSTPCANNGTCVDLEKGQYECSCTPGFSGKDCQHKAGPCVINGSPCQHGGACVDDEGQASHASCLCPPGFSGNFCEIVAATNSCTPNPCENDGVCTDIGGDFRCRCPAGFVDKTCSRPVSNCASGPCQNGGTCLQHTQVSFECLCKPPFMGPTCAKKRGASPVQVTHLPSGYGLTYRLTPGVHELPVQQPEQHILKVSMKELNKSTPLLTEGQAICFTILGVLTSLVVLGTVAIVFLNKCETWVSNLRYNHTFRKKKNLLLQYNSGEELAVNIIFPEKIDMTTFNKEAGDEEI

T6: recombinant fusion protein of human DLK1 extracellular domain (ECD) and monomeric immunoglobulin Fc domain … (human, UniProt P80370 24-303)
T6 construct: also called human DLK1 ECD-mFc fusion protein; not shown: monomeric immunoglobulin Fc domain (mFc)
T6 sequence: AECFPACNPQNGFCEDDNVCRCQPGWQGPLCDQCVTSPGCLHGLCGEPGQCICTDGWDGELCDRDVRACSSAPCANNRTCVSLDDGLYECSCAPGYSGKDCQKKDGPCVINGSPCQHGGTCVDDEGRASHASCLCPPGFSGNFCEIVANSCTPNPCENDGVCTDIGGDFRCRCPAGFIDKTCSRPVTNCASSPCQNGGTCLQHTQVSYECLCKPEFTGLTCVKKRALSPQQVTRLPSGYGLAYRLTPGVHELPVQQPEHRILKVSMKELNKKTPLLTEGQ


Legend:
[1] = target: T1, DLK1 ECD-mFc long form (human DLK1-FL, …); assay: ELISA, plate coated with DLK1 ECD-mFc long form
Method: Plates were incubated with DLK1 Abs serially diluted 2-fold starting from 400 ng/ml in 5% BSA/PBS at RT for 1.5 hrs. Mouse anti-human IgG Fc secondary antibody conjugated to HRP (Novus catalog number: NBP1-78623H) at 1:3000 dilution was applied to each well at 50 μl/well and further incubated at RT for 1 hr. The ELISA was developed first with Thermo Scientific Pierce 1-Step™ Ultra TMB-ELISA substrate solution and then with addition of sulfuric acid stop solution. The ELISA plate was read on a plate reader at 450 nm.

[2] = target: T2, human DLK1 long form (isoform 1, …); assay: KinExA on HEK293T DLK1mGFP Human Clone G06 cells detached by Versene; Error% 3.83; 95% CI 0.455nM - 2.19nM; equilibrium curves 500pM, 20nM
[3] = target: T3, human DLK1 short form (isoform 2, …); assay: cell-based or functional assay
[4] = target: either the long or short form of the human DLK1 protein (DLK1 ECD-mFc long form or short form, ELISA coat); assay: ELISA, plates coated with DLK1 ECD-mFc long form or short form, anti-human IgG Fc-HRP detection
[5] = target: T4, rat DLK1 fused to mGFP, overexpressed …; assay: KinExA on HEK293T DLK1mGFP Rat mass pop cells detached by Versene; Error% 3.17; 95% CI 1.82nM - 13.53nM; equilibrium curves 400pM, 50nM
[6] = target: T5, mouse DLK1 fused to mGFP, overexpressed …; assay: KinExA on HEK293T DLK1mGFP Mouse mass pop cells detached by Versene; Error% 3.08; 95% CI 4.21nM - 26.32nM; equilibrium curves 400pM, 50nM
[7] = target: T6, recombinant fusion protein of human …; assay: affinity on recombinant DLK1 ECD-mFc; method not stated
[8] = target: human DLK1-overexpressed on surface of HEK293T cells or DLK1-positive COR-L279 cells; assay: affinity on cells (HEK293T overexpressing human DLK1 or COR-L279); method not stated in the sentence (KinExA is named for FIG. 11)

Binder	fold higher binding affinity than LegoChem 18A5 antibody for human DLK1-FL [1]	Kd [2]	ADCC reporter assay: NFAT activation (Lucia luciferase) in Jurkat-Lucia NFAT-CD16 effector cells, EC50 [3]	EC50 [4]	Kd [5]	Kd [6]	Kd [7]	Kd [8]
humanized anti-DLK1 antibody 04-0561-F1 (IgG1) (antibody, V domains shown) VH: QVQLQESGPGLVKPSETLSLTCTVSGFSLSIYSVHWVRQPPGKGLEWIGLIWGGGSTDYNPSLKSRVTISKDTSKNQVSLKLSSVTAADTAVYYCARKEGNYLWFAYWGQGTLVTVSS VL: DIVMTQSPDSLAVSLGERVTMNCKSSQSLLQSSNQKNYLAWYQQKPGQPPKLLVYFASTRESGVPDRFSGSGSGTDFTLTISSVQAEDVAVYYCQQHYSIPLTFGQGTKLEIKR	> 20 fold	1.11 nM	~101 ng/mL	0.81 to 0.87 nM	–	–	–	–
humanized anti-DLK1 antibody 04-0547-h2 (IgG1) (antibody, V domains shown, human kappa (P01834) and human IgG1 (P01857) constant regions) VH: EVQLVESGGGLVQPGGSLRLSCAASGFSISDYYMAWVRQAPGKGLEWVANINYDGTNTYYADSVKGRFTISRDNSKNTLYLQMNSLRAEDTAVYYCVRSYYYYGMEYWGQGTTVTVSS VL: DIQMTQSPSSLSASVGDRVTITCRASHDVSTAVAWYQQKPGKAPKLLIYSASYRYTGVPSRFSGSGSGTDFTLTISSLQPEDFATYYCQQHYRIPLTFGQGTKLEIK	–	–	–	–	5.96 nM	13 nM	~0.3 nM	5 to 9 nM
